Results reported in the FLAb antibody collection (doi:10.7554/elife.23156).

B1: scFv; the commonest letter at each place (parent)
chain 1: EVKLDETGGGLVQPGRPMKLSCVASGFTFSDYWMNWVRQSPEKGLEWVAQIRNKPYNYETYYSDSVKGRFTISRDDSKSSVYLQMNNLRVEDMGIYYCTGSYYGMDYWGQGTSVTVS
chain 2: DVVMTQTPLSLPVSLGDQASISCRSSQSLVHSNGNTYLRWYLQKPGQSPKVLIYKVSNRFSGVPDRFSGSGSGTDFTLKISRVEAEDLGVYFCSQSTHVPWTFGGGTKLEIK

How the values were obtained:
fluorescein = variants of: B1; assay: Kd (Tite-Seq); conditions: with fluorescein; format: scFv 4-4-20, heavy + light
[1] = variants of: B1; assay: yeast surface expression (ratio to wild type); higher = more expressed; conditions: format: scFv 4-4-20, heavy + light

| Variant | Kd (fluorescein) [µM] | yeast surface expression [1] |
| --- | --- | --- |
| chain 1 EVKLDETGGGLVQPGRPMKLSCVASGFTLSDYDMNSVRQSPEKGLEWVAQIRNKPYNYETYYSDSVKGRFTISRDDSKSSVYLQMNNLRVEDMGIYYCTGSYYGMDYWGQGTSVTVS chain 2 DVVMTQTPLSLPVSLGDQASISCRSSQSLVHSNGNTYLRWYLQKPGQSPKVLIYKVSNRFSGVPDRFSGSGSGTDFTLKISRVEAEDLGVYFCSQSTHVPWTFGGGTKLEIK [chain 1 F29L W33D W36S] | ≥ 10 | 0.585 |
| chain 1 EVKLDETGGGLVQPGRPMKLSCVASGFTFSDYWMNWVRQSPEKGLEWVAQIRNKPYNYETYYSDSVKGRFTISRDDSKSSVYLQMNNLRVEDMGIYYCTGHYYGMDYWVQGTSVTVS chain 2 DVVMTQTPLSLPVSLGDQASISCRSSQSLVHSNGNTYLRWYLQKPGQSPKVLIYKVSNRFSGVPDRFSGSGSGTDFTLKISRVEAEDLGVYFCSQSTHVPWTFGGGTKLEIK [chain 1 S101H G109V] | ≥ 10 | 0.231 |
| chain 1 EVKLDETGGGLVQPGRPMKLSCVASGFTFSDYWMNWVRQSPEKGLEWVAQIRNKPYNYETYYSDSVKGRFTISRDDSKSSVYLQMNNLRVEDMGIYYCTGSYYGNDYWEQGTSVTVS chain 2 DVVMTQTPLSLPVSLGDQASISCRSSQSLVHSNGNTYLRWYLQKPGQSPKVLIYKVSNRFSGVPDRFSGSGSGTDFTLKISRVEAEDLGVYFCSQSTHVPWTFGGGTKLEIK [chain 1 M105N G109E] | ≥ 10 | 0.266 |
| chain 1 EVKLDETGGGLVQPGRPMKLSCVASGFTFSDYWMNWVRQSPEKGLEWVAQIRNKPYNYETYYSDSVKGRFTISRDDSKSSVYLQMNNLRVEDMGIYYCTGSYYIMDYWKQGTSVTVS chain 2 DVVMTQTPLSLPVSLGDQASISCRSSQSLVHSNGNTYLRWYLQKPGQSPKVLIYKVSNRFSGVPDRFSGSGSGTDFTLKISRVEAEDLGVYFCSQSTHVPWTFGGGTKLEIK [chain 1 G104I G109K] | ≥ 10 | 0.246 |

Further lines, with some results ahead:

| Kd (fluorescein) [µM] | Variant | yeast surface expression [1] |
| --- | --- | --- |
| 0.0146 | chain 1 EVKLDETGGGLVQPGRPMKLSCVASGFTFSDYWMNWVRQSPEKGLEWVAQIRNKPYNYETYYSDSVKGRFTISRDDSKSSVYLQMNNLRVEDMGIYYCTGSFYGRDYWGQGTSVTVS chain 2 DVVMTQTPLSLPVSLGDQASISCRSSQSLVHSNGNTYLRWYLQKPGQSPKVLIYKVSNRFSGVPDRFSGSGSGTDFTLKISRVEAEDLGVYFCSQSTHVPWTFGGGTKLEIK [chain 1 Y102F M105R] | 1.2 |
| 0.0017 | chain 1 EVKLDETGGGLVQPGRPMKLSCVASGFTFSDYWMNWVRQSPEKGLEWVAQIRNKPYNYETYYSDSVKGRFTISRDDSKSSVYLQMNNLRVEDMGIYYCTGSYYGMDFWGQGTSVTVS chain 2 DVVMTQTPLSLPVSLGDQASISCRSSQSLVHSNGNTYLRWYLQKPGQSPKVLIYKVSNRFSGVPDRFSGSGSGTDFTLKISRVEAEDLGVYFCSQSTHVPWTFGGGTKLEIK [chain 1 Y107F] | 0.928 |
